# Test results as given in patent US9057727B2, “Screening methods using G-protein coupled receptors and related compositions” (The General Hospital Corporation, priority 2007, dated 2015).
# Ends that are not written are not given here.
# Experiments:
# [1] = test system: MC3T3-E1 cells; experiment: cAMP screen of EALK-PTHrP(1-31)/(1-34) variants (% parent); format: cell-based; conditions: parent E18,A22,L25,K26-PTHrP(1-31)OH
# Excerpt: FIGS. 32A and 32B are graphs showing the effects of amino acid substitutions in the 29-31 region of EALK-PTHrP(1-31) (SEQ ID NO:94) (FIG. 32A) and the 29-33 region of EALK-PTHrP(1-34) (SEQ ID NO:112) (FIG. 32B) on induction of cAMP activity in MC3T3-E1 cells. Substitutions at position 29 for EALK-PTHrP(1-31) were G^29 to S^29 (SEQ ID NO:95-96), L^29 (SEQ ID NO:176), and N^29 to K^29 (SEQ ID NO:97-101). Substitutions at position 30 for EALK-PTHrP(1-31) were G^30 to D^30 (SEQ ID NO:102-106), W^30 (SEQ ID NO:177), and K^30 (SEQ ID NO:107). […] Substitutions for EALK-PTHrP(1-34) A^30 to A^33 (SEQ ID NO:113-116) and EALK-PTHrP(1-28)/PTH(29-34) (SEQ ID NO:117).
# To optimize the activity of the EALK-PTHrP peptides, we generated EALK-PTHrP([…]) and PTHrP(1-34) variants with substitutions in the 29-33 region. In the 1-30 scaffold, Gly, Ser, Leu, Asn, Gln, Trp, Glu, and Lys were substituted at position 29; Gly, Ser, Leu, Asn, Asp, Trp, and Lys were substituted at position 30; and Ser, Leu, Asn, Val, Trp, Glu, and Lys were substituted at position 31. […] A predicted advantage of these longer-length peptides, relative to the PTHrP(1-30) scaffold, is that they will have longer a longer half-life in circulation due to slower clearance. The C-terminal substitutions were thus designed to provide the added chain length, but to avoid increasing R^0 binding affinity, which occurs when the native PTHrP(29-34) region (SEQ ID NO:186) is installed. These peptides were tested for cAMP activity in MC3T3-E1 cells.
# [2] = test system: MC3T3-E1 cells; experiment: cAMP in MC3T3-E1 cells, dose-response; format: cell-based; conditions: Table 3; read-out: dose-response cAMP in MC3T3-E1 (EC50)
# Experimental: In the 1-30 scaffold, Gly, Ser, Leu, Asn, Gln, Trp, Glu, and Lys were substituted at position 29; Gly, Ser, Leu, Asn, Asp, Trp, and Lys were substituted at position 30; and Ser, Leu, Asn, Val, Trp, Glu, and Lys were substituted at position 31. […] These peptides were tested for cAMP activity in MC3T3-E1 cells.
# [3] = biological target: T1, human PTHR, G protein-coupled conformation (RG) (Homo sapiens, UniProt Q03431); experiment: Competition binding to RG conformation of hPTHR (COS-7 membranes, GαsND, 125I-[Aib1,3,M]PTH(1-15) tracer); conditions: parent PTHrP(1-28)NH
# T1 construct: expressed in transfected cells; host or cells: COS-7, transient (Fugene-6); membranes
# T1 sequence (Q03431 27-593): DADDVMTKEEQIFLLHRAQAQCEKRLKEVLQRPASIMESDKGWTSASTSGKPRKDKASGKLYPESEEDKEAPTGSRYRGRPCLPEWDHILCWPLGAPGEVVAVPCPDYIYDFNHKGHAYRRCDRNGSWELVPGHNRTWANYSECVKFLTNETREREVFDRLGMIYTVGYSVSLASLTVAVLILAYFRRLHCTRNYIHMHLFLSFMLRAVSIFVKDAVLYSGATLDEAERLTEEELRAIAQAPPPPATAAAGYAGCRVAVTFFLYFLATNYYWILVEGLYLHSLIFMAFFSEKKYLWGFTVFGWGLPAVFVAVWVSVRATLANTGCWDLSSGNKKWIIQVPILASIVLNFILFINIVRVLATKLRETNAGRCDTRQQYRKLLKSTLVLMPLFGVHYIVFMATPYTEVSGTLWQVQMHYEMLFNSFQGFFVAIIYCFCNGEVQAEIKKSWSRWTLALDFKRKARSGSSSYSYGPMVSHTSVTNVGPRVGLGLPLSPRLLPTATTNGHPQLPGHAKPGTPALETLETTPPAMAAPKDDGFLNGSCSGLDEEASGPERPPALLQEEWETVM
# [4] = biological target: T2, human PTHR, G protein-uncoupled conformation (R^0) (Homo sapiens, UniProt Q03431); experiment: Competition binding to R0 conformation of hPTHR (COS-7 membranes, GTPγS, 125I-PTH(1-34) tracer); conditions: parent PTHrP(1-28)NH
# T2 construct: expressed in transfected cells; host or cells: COS-7, transient (Fugene-6)
# T2 sequence (Q03431 27-593): T1 sequence (Q03431 27-593)
# Experimental: Membranes were prepared from COS-7 cells transfected with the hPTHR alone. GTPγS ([…]) was added to the binding reactions so as to functionally uncouple receptor-heterotrimeric G protein complexes, thus enriching for the R^0 (and R) conformations, relative to RG.
# Reactions contained a total membrane protein concentration of 20 to 100 μg/mL, and a total radioactivity concentration of approximately 150,000 cpm/ml. Unlabeled peptide ligands and/or GTPγS (Sigma-Aldrich Inc. St. Louis, Mo.) were added to the reactions as indicated.
# Membranes, tracer radioligand, and various concentrations of unlabeled ligands and/or GTPγS were incubated in the wells for 90 minutes, following which, the reaction plates were processed by rapid vacuum filtration to separate bound from free radioligand, as described above. […] For both radioligands, the non-specific binding was determined in reactions containing a saturating concentration of the unlabeled analog of the radioligand. The specifically bound radioactivity was calculated as a percent of the radioactivity specifically bound in the absence of a competing ligand or GTPγS.
# To assess the capacities of various unlabeled peptide ligands to bind to the G protein-uncoupled and G protein-coupled PTHR conformations (R^0 and RG, respectively), membranes were prepared from transiently transfected COS-7 cells and the following assay conditions.
# [5] = test system: LLCPK1-B64 cells or SaOS-2 cells; experiment: cAMP screen of substituted PTHrP(1-28) analogs (% parent); format: cell-based; conditions: parent PTHrP(1-28)NH
# Experimental: Alanine substitution at position 18, 22, 25 and 26 increased activity in at least one cell type. These positions were further substituted to various types of amino acids, and cAMP activity was analyzed in LLCPK1-B64 cells (FIG. 27C) or SaOS-2 cells (FIG. 27D). Cells were treated with analogs at 3×10^−9M in the presence of IBMX for 30 minutes at room temperature. Responses for each analog were normalized to the response for the parent (native) PTHrP(1-28) peptide. Alanine substitutions were A^15 to A^17 (SEQ ID NO:152-154), A^18 (SEQ ID NO:34), A^19 to A^21 (SEQ ID NO:155-157), A^22 (SEQ ID NO:39), A^23 to A^25 (SEQ ID NO:158-160), A^26 (SEQ ID NO:46), and A^27 to A^28 (SEQ ID NO:161-162). Substitutions at position 18 were A^18 (SEQ ID NO: 34), G^18 (SEQ ID NO:163), S^18 (SEQ ID NO:35), M^18 (SEQ ID NO:36), L^18 (SEQ ID NO:164), F^18 (SEQ ID NO:37), N^18 (SEQ ID NO:165), E^18 (SEQ ID NO:38), and K^18 (SEQ ID NO:166). Substitutions at position 22 were A^22 (SEQ ID NO:39), G^22 (SEQ ID NO:167), and S^22 to K^22 (SEQ ID NO:40-45). Substitutions at position 26 were A^26 (SEQ ID NO:46), G^26 (SEQ ID NO:168), S^26 (SEQ ID NO:47), L^26 (SEQ ID NO:169), N^26 (SEQ ID NO:48), W^26 to E^26 (SEQ ID NO:170-171), and K^26 to R^26 (SEQ ID NO:49-50). Substitutions at position 25 were G^25 to S^25 (SEQ ID NO:172-173), L^25 (SEQ ID NO:51), N^25 (SEQ ID NO:174), W^25 (SEQ ID NO:52), E^25 (SEQ ID NO:175), and K^25 to R^25 (SEQ ID NO:53-54). […]
Substance,screen cAMP (% parent) [1] [% parent],EC50 [2] [nM],screen human PIR RG (% parent) [3] [% parent],screen human PIR R0 (% parent) [4] [% parent],screen cAMP (% parent) [5] [% parent]
"E18,A22,L25,K26,W29-PTHrP(1-31) (AVSEHQLLHDKGKSIQDERRRAFLLKLIWEI-OH) [E18, A22, L25, K26, W29-PTHrP(1-31)OH]",142,–,–,–,–
"AVSEHQLLHDKGKSIQDERRRAFLLKLIAEI [E18, A22, L25, K26-PTHrP(1-31)NH, E18,A22,L25,K26-PTHrP(1-31)]",–,0.112,–,–,–
"E18,A22,L25,K26,N29-PTHrP(1-31) (AVSEHQLLHDKGKSIQDERRRAFLLKLINEI-OH) [E18, A22, L25, K26, M29-PTHrP(1-31)OH]",210,–,–,–,–
"AVSEHQLLHDKGKSIQDARRRAFLHKLIAE [A18, 22, K26-PTHrP(1-30)NH, A18,22,K26-PTHrP(1-30)]",–,0.058,–,–,–
"E18,N22,A26-PTHrP(1-28) (AVSEHQLLHDKGKSIQDERRRNFLHALI-NH2) [E18, N22, A26-PTHrP(1-28)NH]",–,–,140,53.7,171
"E18,K22,A26-PTHrP(1-28) (AVSEHQLLHDKGKSIQDERRRKFLHALI-NH2) [E18, K22, A26-PTHrP(1-28)NH]",–,–,192,106.1,315
"A18,26,S22-PTHrP(1-28) (AVSEHQLLHDKGKSIQDARRRSFLHALI-NH2) [A18, 26, S22-PTHrP(1-28)NH]",–,–,148,133,229
"A18,W22,K26-PTHrP(1-28) (AVSEHQLLHDKGKSIQDARRRWFLHKLI-NH2) [A18, W22, K26-PTHrP(1-28)NH]",–,–,115,136,267
"AVSEHQLLHDKGKSIQDARRRAFLLKLIAEI [A18, 22, L25, K26-PTHrP(1-31)NH, A18,22,L25,K26-PTHrP(1-31)]",–,0.2,–,–,–
"A18,22,26-PTHrP(1-28) (AVSEHQLLHDKGKSIQDARRRAFLHALI-NH2) [A18, 22, 26-PTHrP(1-28)NH]",–,–,167,160,343
"E18,K22,26-PTHrP(1-28) (AVSEHQLLHDKGKSIQDERRRKFLHKLI-NH2) [E18, K22, 26-PTHrP(1-28)NH]",–,–,208,119.8,374
"AVSEHQLLHDKGKSIQDARRRAFLHKLIAEI [A18, 22, K26-PTHrP(1-31)NH, A18,22,K26-PTHrP(1-31)]",–,0.06,–,–,–
"E18,N22,K26-PTHrP(1-28) (AVSEHQLLHDKGKSIQDERRRNFLHKLI-NH2) [E18, N22, K26-PTHrP(1-28)NH]",–,–,147,84.4,236
"E18,W22,K26-PTHrP(1-28) (AVSEHQLLHDKGKSIQDERRRWFLHKLI-NH2) [E18, W22, K26-PTHrP(1-28)NH]",–,–,149,46.6,165
"A18,26,W22-PTHrP(1-28) (AVSEHQLLHDKGKSIQDARRRWFLHALI-NH2) [A18, 26, W22-PTHrP(1-28)NH]",–,–,120,126,188
"AVSEHQLLHDKGKSIQDERRRAFLHHKIAE [E18, A22, K27-PTHrP(1-30)NH, E18,A22,K27-PTHrP(1-30)]",–,0.082,–,–,–
"E18,L22,A26-PTHrP(1-28) (AVSEHQLLHDKGKSIQDERRRLFLHALI-NH2) [E18, L22, A26-PTHrP(1-28)NH]",–,–,125,52.5,139
"A18,L22,K26-PTHrP(1-28) (AVSEHQLLHDKGKSIQDARRRLFLHKLI-NH2) [A18, L22, K26-PTHrP(1-28)NH]",–,–,177,160,350
